Measurements as given in US20100004431A1 (Xencor, published 2010).

T1: CD25 (R&D systems cat. #223-2A/CF) (UniProt P01589 22-213, limits assumed)
T1 construct: Bought soluble protein
T1 sequence (looked up): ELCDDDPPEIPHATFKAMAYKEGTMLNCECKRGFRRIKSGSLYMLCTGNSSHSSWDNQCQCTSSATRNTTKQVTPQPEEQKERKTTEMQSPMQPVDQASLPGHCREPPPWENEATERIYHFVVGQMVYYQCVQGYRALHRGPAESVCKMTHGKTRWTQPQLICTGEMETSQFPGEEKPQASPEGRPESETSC


Target: T1, CD25 (R&D systems cat. #223-2A/CF)
Assay: Biacore (SPR); antibody captured on Protein A, CD25 injected
Method: (§1) Binding was measured by injection of two-fold serial dilutions of CD25 (0 nM to 50 nM; R&D systems) in buffer at 25° C. with a flow rate of 25-30 μL/min for 2 min followed by a dissociation phase of 4-5 min. Association rates (kₒₙ) and dissociation rates (koff) were calculated using a simple one-to-one Langmuir binding model (BIAcore Evaluation Software version 3.2). The equilibrium dissociation constant (Kd) was calculated as the ratio of koff/kₒₙ).

Fold change in Kd vs. H1L1 | Kd | koff | kon | Binder
2 fold | 0.16 nM | 0.00031 s⁻¹ | 1.9e+06 M⁻¹ s⁻¹ | anti-CD25 H1.1L1 (antibody, V domains shown, Single variant in the anti-CD25 H1L1 background; also called VH A71R single variant) VH: QVQLVQSGAEVKKPGASVKVSCKASGYTFTSYRMHWVRQAPGQGLEWMGYINPSTGYTEYNQKFQGRVTITRDKSISTAYMELSRLRSDDTAVYYCARGGGVFDYWGQGTLVTVSS VL: QIVLTQSPATLSLSPGERATLSCRASSSISYMHWFQQKPGQSPQLLIYTTSNLASGVPARFSGSGSGTDYTLTISSLQPEDFAVYYCHQRSTYPLTFGSGTKLEIK
1.1 fold | 0.29 nM | 0.00052 s⁻¹ | 1.8e+06 M⁻¹ s⁻¹ | anti-CD25 H1L1.5 (antibody, V domains shown, Single variant in the anti-CD25 H1L1 background; also called VL Q1E single variant) VH: QVQLVQSGAEVKKPGASVKVSCKASGYTFTSYRMHWVRQAPGQGLEWMGYINPSTGYTEYNQKFQGRVTITADKSISTAYMELSRLRSDDTAVYYCARGGGVFDYWGQGTLVTVSS VL: EIVLTQSPATLSLSPGERATLSCRASSSISYMHWFQQKPGQSPQLLIYTTSNLASGVPARFSGSGSGTDYTLTISSLQPEDFAVYYCHQRSTYPLTFGSGTKLEIK
1.1 fold | 0.3 nM | 0.0006 s⁻¹ | 2e+06 M⁻¹ s⁻¹ | anti-CD25 H1.4L1 (antibody, V domains shown, Single variant in the anti-CD25 H1L1 background; also called VH K73T single variant) VH: QVQLVQSGAEVKKPGASVKVSCKASGYTFTSYRMHWVRQAPGQGLEWMGYINPSTGYTEYNQKFQGRVTITADTSISTAYMELSRLRSDDTAVYYCARGGGVFDYWGQGTLVTVSS VL: QIVLTQSPATLSLSPGERATLSCRASSSISYMHWFQQKPGQSPQLLIYTTSNLASGVPARFSGSGSGTDYTLTISSLQPEDFAVYYCHQRSTYPLTFGSGTKLEIK
1 fold | 0.32 nM | 0.00057 s⁻¹ | 1.8e+06 M⁻¹ s⁻¹ | anti-CD25 H1L1.6 (antibody, V domains shown, Single variant in the anti-CD25 H1L1 background; also called VL Q45R single variant) VH: QVQLVQSGAEVKKPGASVKVSCKASGYTFTSYRMHWVRQAPGQGLEWMGYINPSTGYTEYNQKFQGRVTITADKSISTAYMELSRLRSDDTAVYYCARGGGVFDYWGQGTLVTVSS VL: QIVLTQSPATLSLSPGERATLSCRASSSISYMHWFQQKPGQSPRLLIYTTSNLASGVPARFSGSGSGTDYTLTISSLQPEDFAVYYCHQRSTYPLTFGSGTKLEIK
1.2 fold | 0.28 nM | 0.00054 s⁻¹ | 2e+06 M⁻¹ s⁻¹ | anti-CD25 H1L1.7 (antibody, V domains shown, Single variant in the anti-CD25 H1L1 background; also called VL Q79E single variant) VH: QVQLVQSGAEVKKPGASVKVSCKASGYTFTSYRMHWVRQAPGQGLEWMGYINPSTGYTEYNQKFQGRVTITADKSISTAYMELSRLRSDDTAVYYCARGGGVFDYWGQGTLVTVSS VL: QIVLTQSPATLSLSPGERATLSCRASSSISYMHWFQQKPGQSPQLLIYTTSNLASGVPARFSGSGSGTDYTLTISSLEPEDFAVYYCHQRSTYPLTFGSGTKLEIK

Target: T1, CD25 (R&D systems cat. #223-2A/CF)
Assay: as above
Remark: another data set of the same source
Method: as §1

Fold change in Kd vs. H0L0 | Kd | koff | kon | Binder
-1.3 fold | 0.32 nM | 0.00022 s⁻¹ | 670000 M⁻¹ s⁻¹ | anti-CD25 H1.14L1.43 (antibody, V domains shown) VH: not shown VL: EIVLTQSPATLSLSPGERATLSCRASQSVSYLHWYQQKPGQAPRLLIYTTSNRATGIPARFSGSGSGTDYTLTISSLQPEDFAVYYCHQRSTYPLTFGSGTKLEIK
1.2 fold | 0.21 nM | 0.00018 s⁻¹ | 850000 M⁻¹ s⁻¹ | anti-CD25 H1.12L1.56 (antibody, V domains shown) VH: not shown VL: QIVLTQSPATLSLSPGERATLSCRASQSVSYLHWFQQKPGQSPQLLIYTTSNRATGIPARFSGSGSGTDFTLTISSLEPEDFAVYYCHQRSTYPLTFGSGTKLEIK
1.1 fold | 0.24 nM | 0.00018 s⁻¹ | 720000 M⁻¹ s⁻¹ | anti-CD25 H1.22L1.20 (antibody, V domains shown) VH: QVQLVQSGAEVKKPGASVKVSCKASGYTFTSYRMHWVRQAPGQGLEWMGWINPNSGGTNYAQKFQGRVTITRDTSISTAYMELSRLRSDDTAVYYCARGGGVFDYWGQGTLVTVSS VL: EIVLTQSPATLSLSPGERATLSCRASQSVSYLHWYQQKPGQAPRLLIYTTSNRATGIPARFSGSGSGTDFTLTISSLEPEDFAVYYCHQRSTYPLTFGSGTKLEIK
1.4 fold | 0.19 nM | 0.00014 s⁻¹ | 720000 M⁻¹ s⁻¹ | anti-CD25 H1.12L1.43 (antibody, V domains shown) VH: not shown VL: EIVLTQSPATLSLSPGERATLSCRASQSVSYLHWYQQKPGQAPRLLIYTTSNRATGIPARFSGSGSGTDYTLTISSLQPEDFAVYYCHQRSTYPLTFGSGTKLEIK
1.2 fold | 0.22 nM | 0.00022 s⁻¹ | 970000 M⁻¹ s⁻¹ | anti-CD25 H1.22L1.56 (antibody, V domains shown) VH: QVQLVQSGAEVKKPGASVKVSCKASGYTFTSYRMHWVRQAPGQGLEWMGWINPNSGGTNYAQKFQGRVTITRDTSISTAYMELSRLRSDDTAVYYCARGGGVFDYWGQGTLVTVSS VL: QIVLTQSPATLSLSPGERATLSCRASQSVSYLHWFQQKPGQSPQLLIYTTSNRATGIPARFSGSGSGTDFTLTISSLEPEDFAVYYCHQRSTYPLTFGSGTKLEIK
-1.1 fold | 0.3 nM | 0.00019 s⁻¹ | 640000 M⁻¹ s⁻¹ | anti-CD25 H1.22L1.43 (antibody, V domains shown) VH: QVQLVQSGAEVKKPGASVKVSCKASGYTFTSYRMHWVRQAPGQGLEWMGWINPNSGGTNYAQKFQGRVTITRDTSISTAYMELSRLRSDDTAVYYCARGGGVFDYWGQGTLVTVSS VL: EIVLTQSPATLSLSPGERATLSCRASQSVSYLHWYQQKPGQAPRLLIYTTSNRATGIPARFSGSGSGTDYTLTISSLQPEDFAVYYCHQRSTYPLTFGSGTKLEIK
1.5 fold | 0.17 nM | 0.00014 s⁻¹ | 780000 M⁻¹ s⁻¹ | anti-CD25 H1.22L1.48 (antibody, V domains shown) VH: QVQLVQSGAEVKKPGASVKVSCKASGYTFTSYRMHWVRQAPGQGLEWMGWINPNSGGTNYAQKFQGRVTITRDTSISTAYMELSRLRSDDTAVYYCARGGGVFDYWGQGTLVTVSS VL: EIVLTQSPATLSLSPGERATLSCRASQSVSYMHWYQQKPGQAPRLLIYTTSNRATGIPARFSGSGSGTDFTLTISSLEPEDFAVYYCHQRSTYPLTFGSGTKLEIK
1.6 fold | 0.16 nM | 0.00017 s⁻¹ | 1e+06 M⁻¹ s⁻¹ | anti-CD25 H1.14L1.56 (antibody, V domains shown) VH: not shown VL: QIVLTQSPATLSLSPGERATLSCRASQSVSYLHWFQQKPGQSPQLLIYTTSNRATGIPARFSGSGSGTDFTLTISSLEPEDFAVYYCHQRSTYPLTFGSGTKLEIK
1.2 fold | 0.21 nM | 0.0002 s⁻¹ | 950000 M⁻¹ s⁻¹ | anti-CD25 H1.23L1.56 (antibody, V domains shown) VH: not shown VL: QIVLTQSPATLSLSPGERATLSCRASQSVSYLHWFQQKPGQSPQLLIYTTSNRATGIPARFSGSGSGTDFTLTISSLEPEDFAVYYCHQRSTYPLTFGSGTKLEIK
-5 fold | 1.3 nM | 0.0007 s⁻¹ | 540000 M⁻¹ s⁻¹ | anti-CD25 H1L1.56 (antibody, V domains shown, the fourth VL chain; also called VL combination variant L1.56 paired with H1) VH: QVQLVQSGAEVKKPGASVKVSCKASGYTFTSYRMHWVRQAPGQGLEWMGYINPSTGYTEYNQKFQGRVTITADKSISTAYMELSRLRSDDTAVYYCARGGGVFDYWGQGTLVTVSS VL: QIVLTQSPATLSLSPGERATLSCRASQSVSYLHWFQQKPGQSPQLLIYTTSNRATGIPARFSGSGSGTDFTLTISSLEPEDFAVYYCHQRSTYPLTFGSGTKLEIK
-4.2 fold | 1.1 nM | 0.00048 s⁻¹ | 430000 M⁻¹ s⁻¹ | anti-CD25 H1L1.20 (antibody, V domains shown, also called VL combination variant L1.20 paired with H1) VH: QVQLVQSGAEVKKPGASVKVSCKASGYTFTSYRMHWVRQAPGQGLEWMGYINPSTGYTEYNQKFQGRVTITADKSISTAYMELSRLRSDDTAVYYCARGGGVFDYWGQGTLVTVSS VL: EIVLTQSPATLSLSPGERATLSCRASQSVSYLHWYQQKPGQAPRLLIYTTSNRATGIPARFSGSGSGTDFTLTISSLEPEDFAVYYCHQRSTYPLTFGSGTKLEIK
-2.4 fold | 0.63 nM | 0.00031 s⁻¹ | 500000 M⁻¹ s⁻¹ | anti-CD25 H1L1.48 (antibody, V domains shown, also called VL combination variant L1.48 paired with H1) VH: QVQLVQSGAEVKKPGASVKVSCKASGYTFTSYRMHWVRQAPGQGLEWMGYINPSTGYTEYNQKFQGRVTITADKSISTAYMELSRLRSDDTAVYYCARGGGVFDYWGQGTLVTVSS VL: EIVLTQSPATLSLSPGERATLSCRASQSVSYMHWYQQKPGQAPRLLIYTTSNRATGIPARFSGSGSGTDFTLTISSLEPEDFAVYYCHQRSTYPLTFGSGTKLEIK
-5 fold | 1.3 nM | 0.00053 s⁻¹ | 410000 M⁻¹ s⁻¹ | anti-CD25 H1L1.43 (antibody, V domains shown, also called VL combination variant L1.43 paired with H1) VH: QVQLVQSGAEVKKPGASVKVSCKASGYTFTSYRMHWVRQAPGQGLEWMGYINPSTGYTEYNQKFQGRVTITADKSISTAYMELSRLRSDDTAVYYCARGGGVFDYWGQGTLVTVSS VL: EIVLTQSPATLSLSPGERATLSCRASQSVSYLHWYQQKPGQAPRLLIYTTSNRATGIPARFSGSGSGTDYTLTISSLQPEDFAVYYCHQRSTYPLTFGSGTKLEIK
1.2 fold | 0.21 nM | 0.00017 s⁻¹ | 790000 M⁻¹ s⁻¹ | anti-CD25 H1.14L1.48 (antibody, V domains shown) VH: not shown VL: EIVLTQSPATLSLSPGERATLSCRASQSVSYMHWYQQKPGQAPRLLIYTTSNRATGIPARFSGSGSGTDFTLTISSLEPEDFAVYYCHQRSTYPLTFGSGTKLEIK
1.1 fold | 0.23 nM | 0.00018 s⁻¹ | 750000 M⁻¹ s⁻¹ | anti-CD25 H1.23L1.48 (antibody, V domains shown) VH: not shown VL: EIVLTQSPATLSLSPGERATLSCRASQSVSYMHWYQQKPGQAPRLLIYTTSNRATGIPARFSGSGSGTDFTLTISSLEPEDFAVYYCHQRSTYPLTFGSGTKLEIK
1.2 fold | 0.22 nM | 0.00016 s⁻¹ | 710000 M⁻¹ s⁻¹ | anti-CD25 H1.23L1.20 (antibody, V domains shown) VH: not shown VL: EIVLTQSPATLSLSPGERATLSCRASQSVSYLHWYQQKPGQAPRLLIYTTSNRATGIPARFSGSGSGTDFTLTISSLEPEDFAVYYCHQRSTYPLTFGSGTKLEIK
